Numbering of substitutions follows the chain as printed. Each block holds one binder with its values, some of them ahead of it.
How the values were obtained:
mEph A2 = mEph A2 (mouse, UniProt Q03145); test: ELISA
r murine EphA7 [1] = target: T1, r murine EphA7 (mouse, UniProt Q61772); test: activity ELISA, Fab on coated antigen
T1 construct: recombinant Fc fusion (R&D Systems); also called rmuEphA7-Fc; mEphA7
T1 sequence (receptor-Fc fusion, looked up): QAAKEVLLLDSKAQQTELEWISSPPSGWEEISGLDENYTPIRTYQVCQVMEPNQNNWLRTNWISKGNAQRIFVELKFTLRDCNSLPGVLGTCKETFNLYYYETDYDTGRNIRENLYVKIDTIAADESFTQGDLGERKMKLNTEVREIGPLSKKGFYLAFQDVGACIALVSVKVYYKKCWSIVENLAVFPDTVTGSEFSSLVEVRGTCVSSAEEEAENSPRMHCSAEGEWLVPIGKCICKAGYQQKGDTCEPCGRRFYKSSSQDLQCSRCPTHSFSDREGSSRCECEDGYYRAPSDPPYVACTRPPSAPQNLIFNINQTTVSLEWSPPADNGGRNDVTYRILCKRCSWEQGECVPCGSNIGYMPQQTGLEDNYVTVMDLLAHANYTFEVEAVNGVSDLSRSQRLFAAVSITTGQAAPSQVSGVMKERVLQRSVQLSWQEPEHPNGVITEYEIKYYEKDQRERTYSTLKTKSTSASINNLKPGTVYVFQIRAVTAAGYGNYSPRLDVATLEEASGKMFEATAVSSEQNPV
Description: (§1) More precisely, Nunc Maxisorp plates were coated with the following rEphA proteins: rhuEphAl-Fc, rmuEphA2-Fc, rmuEphA3-Fc, rmuEphA4-Fc, rratEphA5-Fc, rmuEphA6-Fc, rmuEphA7-Fc, rEphA8; all at 0.5 μg/well (all R&D Systems) rhuEphA2-Fc; 0.5 μg/well, and rhuEphA4-His; 0.1 μg/well (both produced at MedImmune, Inc.). Plates were blocked with 3% BSA+0.1% Tween20 for 2 h. […] Incubation with a goat anti-human kappa horseradish peroxydase (HRP) conjugate then followed. HRP activity was detected with TMB substrate and the reaction quenched with 0.2 M H₂SO₄. Plates were read at 450 nm. Data was analyzed by normalizing Fab concentrations to the corresponding activity data (see FIGS. 10B-10H).

r murine EphA8 [2] = target: T2, r murine EphA8 (mouse, UniProt O09127); test: activity ELISA, Fab on coated antigen
T2 construct: recombinant (rEphA8, R&D Systems); also called rEphA8
T2 sequence (receptor, looked up): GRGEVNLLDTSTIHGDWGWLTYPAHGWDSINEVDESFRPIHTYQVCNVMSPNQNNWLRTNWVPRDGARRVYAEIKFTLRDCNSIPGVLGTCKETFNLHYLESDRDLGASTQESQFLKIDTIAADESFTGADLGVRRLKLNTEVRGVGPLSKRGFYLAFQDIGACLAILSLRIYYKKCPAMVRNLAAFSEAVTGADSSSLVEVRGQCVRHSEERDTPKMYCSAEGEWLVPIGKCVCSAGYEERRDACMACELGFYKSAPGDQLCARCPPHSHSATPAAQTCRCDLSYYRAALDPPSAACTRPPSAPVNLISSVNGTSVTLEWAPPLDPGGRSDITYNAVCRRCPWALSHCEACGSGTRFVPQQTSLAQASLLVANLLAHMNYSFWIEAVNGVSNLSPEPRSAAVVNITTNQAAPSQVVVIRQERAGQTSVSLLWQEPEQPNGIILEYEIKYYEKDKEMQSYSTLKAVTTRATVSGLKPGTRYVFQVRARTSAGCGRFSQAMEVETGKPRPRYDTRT
Description: as §1

r murine EphA4 [3] = target: T3, r murine EphA4 (mouse, UniProt Q03137); test: activity ELISA, Fab on coated antigen
T3 construct: recombinant Fc fusion (R&D Systems); also called rmuEphA4-Fc; mEphA4
Description: as §1

[4] = target: T4, human EphA4 (construct not given) (human, UniProt P54764 20-547, limits assumed); test: capture ELISA, 25 ng/well sheep anti-human Fd
T4 construct: also called EphA4 receptor

r murine EphA7 [5] = target: T1, r murine EphA7; test: activity ELISA, IgG on coated antigen
Description: (§2) Secondary screening of IgG constructs of affinity optimized combinatorial variants with additional EphA receptors: With purified IgG constructs of the nine combinatorial variants, additional secondary screening assays were performed using the Activity ELISA (see above) and recombinant EphA receptor proteins. More precisely, Nunc Maxisorp plates were coated with the following rEphA proteins: rhuEphAl-Fc; 0.5 μg/well, rmuEphA2-Fc; 0.5 μg/well, rmuEphA3-Fc: 0.1 μg/well, rmuEphA4-Fc; 0.1 μg/well, rratEphA5-Fc; 0.5 μg/well, rmuEphA6-Fc; 0.5 μg/well, rmuEphA7-Fc; 0.1 μg/well, rEphA8; 0.2 μg/well (all R&D Systems), rhuEphA2-Fc; 0.5 μg/well, and rhuEphA4-His; 0.1 μg/well (both produced at MedImmune, Inc.). Plates were blocked with 3% BSA+0.1% Tween20 for 2 h. […] Incubation with a goat anti-human kappa horseradish peroxydase (HRP) conjugate then followed. HRP activity was detected with TMB substrate and the reaction quenched with 0.2 M H₂SO₄. Plates were read at 450 nm. Data was analyzed by normalizing Fab concentrations to the corresponding activity data (see FIGS. 12A-12J and 14).

r murine EphA4 [6] = target: T3, r murine EphA4; test: activity ELISA, IgG on coated antigen
Description: as §2

[7] = target: T5, Human EphA4-Fc fusion protein (human, UniProt P54764 20-547); test: BIAcore, IgG immobilized on the sensor chip, EphA4-Fc as analyte; comment on the sheet: marginal kinetic fit
T5 construct: not shown: Fc portion of a human IgG1
Description: (§3) FIG. 15A-15B. […] Binding affinities were measured using the BIAcore assay. […] Variant kinetic measurements for human EphA4 and were obtained using BIAcore with immobilized variant antibodies and human EphA4-Fc and EphA4-His as analytes.

[8] = target: T6, Human EphA4-His fusion protein (human, UniProt P54764 20-547); test: BIAcore, IgG immobilized on the sensor chip, EphA4-his as analyte; comment on the sheet: marginal fit
T6 construct: also called rhuEphA4-His; not shown: Histidine tag
Description: as §3

mEphA7 = target: T7, mEphA7 (mouse, UniProt Q61772); test: ELISA, receptor coated on the plate, purified IgG, anti-human kappa-HRP
T7 construct: part of an Fc fusion; also called rmuEphA7-Fc
T7 sequence (receptor-Fc fusion, looked up): T1 sequence (receptor-Fc fusion, looked up)
Description: as §2

mEphA4 = target: T8, mEphA4 (mouse, UniProt Q03137); test: as above
T8 construct: part of an Fc fusion; also called rmuEphA4-Fc
Description: as §2

[9] = target: T5, Human EphA4-Fc fusion protein; test: BIAcore, IgG immobilized on the sensor chip, EphA4-Fc as analyte
Description: as §3

r murine EphA8 [10] = target: T9, r murine EphA8 (mouse, UniProt O09127); test: Activity ELISA, receptor coated on the plate, purified IgG, anti-human kappa-HRP, OD 450 nm
T9 construct: recombinant soluble protein coated on the plate; also called mEphA8; rEphA8
T9 sequence (receptor construct, looked up): T2 sequence (receptor, looked up)
Description: as §2

T3 sequence (Q03137 20-547 limits assumed): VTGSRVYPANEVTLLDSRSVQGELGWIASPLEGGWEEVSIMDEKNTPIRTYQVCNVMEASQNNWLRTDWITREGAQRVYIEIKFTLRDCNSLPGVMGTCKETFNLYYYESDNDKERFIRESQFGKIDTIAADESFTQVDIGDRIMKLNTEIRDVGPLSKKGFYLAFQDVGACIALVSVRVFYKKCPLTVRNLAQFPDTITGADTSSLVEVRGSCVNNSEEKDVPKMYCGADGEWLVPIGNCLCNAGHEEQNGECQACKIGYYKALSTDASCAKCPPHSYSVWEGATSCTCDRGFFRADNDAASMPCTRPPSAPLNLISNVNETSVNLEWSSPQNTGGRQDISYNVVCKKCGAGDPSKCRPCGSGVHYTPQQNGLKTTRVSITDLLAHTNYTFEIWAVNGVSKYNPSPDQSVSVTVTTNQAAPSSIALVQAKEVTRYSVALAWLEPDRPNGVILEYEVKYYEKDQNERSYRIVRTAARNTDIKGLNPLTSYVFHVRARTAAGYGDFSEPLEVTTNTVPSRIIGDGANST
T5 sequence (P54764 20-547): as the sequence (Q03137 20-547 limits assumed) above, with A59P, S121N, G124V, Q250R, N251S, S270T, R378K, S406N counted along it
T6 sequence (P54764 20-547): as the sequence (Q03137 20-547 limits assumed) above, with A59P, S121N, G124V, Q250R, N251S, S270T, R378K, S406N counted along it
T8 sequence (Q03137 20-547 limits assumed): as the sequence (Q03137 20-547 limits assumed) above
T4 sequence (P54764 20-547 limits assumed): as the sequence (Q03137 20-547 limits assumed) above, with A59P, S121N, G124V, Q250R, N251S, S270T, R378K, S406N counted along it
mEph A2, sequence (Q03145 26-535 limits assumed): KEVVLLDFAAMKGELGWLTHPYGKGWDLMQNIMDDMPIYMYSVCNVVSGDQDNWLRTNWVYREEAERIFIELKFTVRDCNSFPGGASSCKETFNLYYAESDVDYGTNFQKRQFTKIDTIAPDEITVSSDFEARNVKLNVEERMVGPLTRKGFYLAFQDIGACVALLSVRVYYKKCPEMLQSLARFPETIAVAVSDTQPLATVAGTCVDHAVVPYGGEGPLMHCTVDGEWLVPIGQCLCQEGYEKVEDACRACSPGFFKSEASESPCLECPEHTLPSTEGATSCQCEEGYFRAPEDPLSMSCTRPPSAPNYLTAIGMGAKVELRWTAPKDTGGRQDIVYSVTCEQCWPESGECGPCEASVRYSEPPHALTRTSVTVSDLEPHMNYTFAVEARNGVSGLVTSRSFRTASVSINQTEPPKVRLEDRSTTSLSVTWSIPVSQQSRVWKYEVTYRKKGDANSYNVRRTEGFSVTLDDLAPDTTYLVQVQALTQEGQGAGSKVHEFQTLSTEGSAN

B1: 1D3 (antibody, V domains shown)
VH: EVQLLESGGGLVQPGGSLRLSCAASGFTFSPYDMLWVRQAPGKGLEWVSRIGSSGGYTKYADSVKGRFTISRDNSKNTLYLQMNSLRAEDTAVYYCARARSVVVSSDAFDIWGQGTMVTVSS
VL: DIQMTQSPSSVSASVGDRVTITCRASQGISKWLAWYQQKPGKAPKLLIFGASTLQSGVPSKFSGSKSGTDFTLTISSLQPEDSATYYCQQYNDYPLTFGGGTKVEIK
- ELISA O.D. value (mEph A2): 0.316

B3: 11G6 Fab (affinity optimized CDR3 heavy variant of Fab20) (Fab, V domains shown)
VH: QVQLLQSGAEVKKPGASVKVPCKASGYTFTSYAMSWVRQAPGQGLEWMGWINTNTGNPTYAQGFTGRFVFSLDTSVSTAYLQISSLKAEDTAVYYCARVRFTVYGDGMDVWGQGTLVTVSS
VL: EIVLTQSPATLSVSPGERATLSCRASQSVSSNLAWYQQKPGQAPRLLIYGASTRATGIPDRFSASGSGTDFTLTISRVEPEDFAVYYCQQYGSSWTFGQGTKVEIK
- fold increase in affinity over Fab20 parental background [4]: 1.6 fold

B6: 11H1 Fab (single-change CDR3 heavy variant of Fab20) (Fab, V domains shown)
VH: B3 VH with F101L
VL: B3 VL
notes: also called GEA44 derivative 11H1
- fold increase in affinity over Fab20 parental background [4]: 1.4 fold

Next, values leading:

- binding result (r murine EphA7 [1]): binds
- binding result (r murine EphA8 [2]): binds
- binding result (r murine EphA4 [3]): binds
B2: 2C9 Fab (affinity optimized combinatorial variant of Fab20) (Fab, V domains shown)
VH: B3 VH with Y32R
VL: B3 VL with A55P, S93P

- binding result (r murine EphA7 [5]): binds
- binding result (r murine EphA4 [6]): binds
- Kd [7]: 0.023 nM
- koff [7]: 5.41e-05 s⁻¹
- kon [7]: 2.33e+06 M⁻¹ s⁻¹
- Kd [8]: 1 nM
- koff [8]: 0.000602 s⁻¹
- kon [8]: 600000 M⁻¹ s⁻¹
- binding result (mEphA7): binds
- binding result (mEphA4): binds
B4: 1B10 IgG1 (affinity optimized combinatorial variant of mAb GEA44 in human IgG1 format) (antibody, V domains shown)
VH: B3 VH with Y32R
VL: B3 VL with L33P, R54W, S93P

- binding result (r murine EphA7 [5]): binds
- binding result (r murine EphA4 [6]): binds
- Kd [9]: 0.044 nM
- koff [9]: 1.91e-05 s⁻¹
- kon [9]: 434000 M⁻¹ s⁻¹
- binding result (r murine EphA8 [10]): binds
- binding result (mEphA7): binds
- binding result (mEphA4): binds
B5: 2C9 IgG1 (affinity optimized combinatorial variant of mAb GEA44 in human IgG1 format) (antibody, V domains shown)
VH: B3 VH with Y32R
VL: B3 VL with A55P, S93P

Source: patent publication US20060121042A1 (AstraZeneca / MedImmune, published 2006)
